The term Kd denotes the free concentration of one partner at which half of the binding sites on the other are occupied at equilibrium, for simple one-to-one binding.

We go through four molecules from CN118076384A (SPARKS BIOSCIENCE INC, dated 2024).

Test [1] concerns the target PDL1 on PDL1 aAPC/CHOK1 cells (UniProt Q9NZQ7 19-290, limits assumed). In words: cell-based or functional assay.
Test [2] has as its target T1, PDL1 on MDA MB-231 human breast cancer cells (human, UniProt Q9NZQ7 19-290).
T1 construct: whole, on cells; also called 表达PD-L1的肿瘤细胞
In words: flow cytometry on MDA MB-231 cells, anti-human IgG Fc secondary antibody. Background: Flow cytometry measures light scatter and fluorescence of single cells or particles in a stream.

Test [3] deals with T2, 人PD-L1 (recombinant protein of the phage ELISA) (human, UniProt Q9NZQ7 19-239, limits assumed).
T2 construct: also called CD274; B7同源物1
In words: competitive phage ELISA, Fab on phage, soluble PD-L1 against coated PD-L1.

The target of test [4] is T2, 人PD-L1 (recombinant protein of the …). In words: competitive phage ELISA, ratio to parental clone 12A4. For orientation: An ELISA detects its analyte on a solid surface through an enzyme-linked reagent.

Changes are numbered by the printed parent chain.

B1: 抗PDL1单克隆抗体12A4bad (antibody, V domains shown)
VH: QVQLVQSGAEVKKPGSSVKVSCKTSGDTFSTYAISWVRQAPGQGLEWMGGIIPLFGKAHYAQKFQGRVTITADESTSTAYMELSSLRSEDTAVYFCARKFHFVRGSPFGMDVWGQGTTVTVSS
VL: EIVLTQSPATLSLSPGERATLSCRASQSVSSYLAWYQQKPGQAPRLLIYDASNRAPGIPARFSGSGSGTDFTLTISSLEPEDFAVYYCQQRSNWPTFGQGTKVEIK
In the case of B1, the “EC50 of luminescence in the PDL1/PD1 blockade bioassay” value in test [1] stood at 0.344 nM. In test [2], this molecule returned a Kd of 0.0778 nM.

B2: 12A4bad (Fab displayed on phage) (Fab, V domains shown)
VH: B1 VH
VL: B1 VL
Consider B2, for which the Kd in test [3] was found to be 1.5 nM. Also, in test [4], the 相对于12A4亲本克隆的改善 stood at 7.5 fold.

B3: 12A4a (Fab displayed on phage) (Fab, V domains shown)
VH: B1 VH with L54I, R104S
VL: B1 VL
As to B3, in test [3], the Kd was determined as 8.3 nM. In addition, in test [4], the 相对于12A4亲本克隆的改善 stood at 1.3 fold.

B4: 12A4bd (Fab displayed on phage) (Fab, V domains shown)
VH: B1 VH
VL: not shown
As to B4, in test [3], the Kd came to 1.8 nM. Further, the 相对于12A4亲本克隆的改善 in test [4] came out at 6.3 fold.
